From patent US20070071764A1
Read-outs that look alike come from different tables or passages of the source. Where no end group is shown, it is not given here.

Experiments:
Test in all cases: cell-based or functional assay
[1] = molecular target: human Kv1.1 channel (human) (UniProt Q09470)
[2] = molecular target: human Kv1.3 channel (human) (UniProt P22001)
[3] = molecular target: human Kv1.3 channel (human) (UniProt P22001); remark: listed apart in the source

Sequence of human Kv1.3 channel (human) (P22001 whole entry): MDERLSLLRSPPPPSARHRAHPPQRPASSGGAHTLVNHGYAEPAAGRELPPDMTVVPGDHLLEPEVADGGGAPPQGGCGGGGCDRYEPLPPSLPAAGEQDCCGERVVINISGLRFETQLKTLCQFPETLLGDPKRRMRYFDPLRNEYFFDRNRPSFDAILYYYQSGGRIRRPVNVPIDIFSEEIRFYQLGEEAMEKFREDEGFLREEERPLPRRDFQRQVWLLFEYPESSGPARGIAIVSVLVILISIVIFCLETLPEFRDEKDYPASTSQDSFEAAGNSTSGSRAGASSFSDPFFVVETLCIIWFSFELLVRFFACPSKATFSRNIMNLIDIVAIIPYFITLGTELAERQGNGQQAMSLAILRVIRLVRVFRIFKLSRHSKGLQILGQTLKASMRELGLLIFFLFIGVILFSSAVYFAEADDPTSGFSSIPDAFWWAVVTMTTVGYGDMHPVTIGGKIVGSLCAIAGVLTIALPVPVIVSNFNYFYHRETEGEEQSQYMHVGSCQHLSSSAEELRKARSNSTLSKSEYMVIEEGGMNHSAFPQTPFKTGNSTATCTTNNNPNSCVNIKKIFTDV
Sequence of human Kv1.1 channel (human) (Q09470 whole entry): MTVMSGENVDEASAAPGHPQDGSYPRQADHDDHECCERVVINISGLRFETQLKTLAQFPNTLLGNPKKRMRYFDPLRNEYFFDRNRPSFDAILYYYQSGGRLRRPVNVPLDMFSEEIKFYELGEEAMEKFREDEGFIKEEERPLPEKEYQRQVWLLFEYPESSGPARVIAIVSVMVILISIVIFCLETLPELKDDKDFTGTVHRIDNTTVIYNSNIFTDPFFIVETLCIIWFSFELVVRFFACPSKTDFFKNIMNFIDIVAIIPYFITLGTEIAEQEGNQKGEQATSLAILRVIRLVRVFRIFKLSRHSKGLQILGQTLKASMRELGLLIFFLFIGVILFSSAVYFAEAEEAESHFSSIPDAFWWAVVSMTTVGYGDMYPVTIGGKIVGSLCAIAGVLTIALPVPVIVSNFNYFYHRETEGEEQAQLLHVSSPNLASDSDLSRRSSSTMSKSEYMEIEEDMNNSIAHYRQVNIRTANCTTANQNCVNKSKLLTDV

Q: For “Fc-L10-OSK1 (CHO-derived peptibody) (Fc fusion)”, which hKv1.1: IC50 (electrophysiology, HEK293) [1] is on record?
A: 41600 pM

Q: Fc-L25-ShK[2-35] peptibody (Fc fusion) was tested. Which IC50, whole cell patch clamp electrophysiology on HEK293/Kv1.3 cells [2] did it give?
A: 150 pM

Q: PEG-OSK1 (peptide) was tested. Which peak IC50 (whole-cell patch clamp, HEK293 stably expressing human Kv1.3) [2] did it give?
A: 1.28 nM

Q: With Synthetic OSK1 toxin peptide as the molecule, how does the hKv1.3: IC50 (whole-cell patch clamp, HEK293) [2] read?
A: 39 pM

Q: What about the selectivity ratio hKv1.1/hKv1.3 (IC50 on hKv1.1 over IC50 on hKv1.3) [2] of the same molecule?
A: 4

Q: What about the hKv1.1: IC50 (electrophysiology, HEK293) [1] of the same molecule?
A: 160 pM

Q: How did the peak IC50 (whole-cell patch clamp, HEK293 stably expressing human Kv1.3) [3] turn out when RSCIDTIPKSRCTAFQCKHSMKYRLSFCRKTCGTC (not fully specified (N-terminus); ends and bridges not checked) [20K PEG-ShK[1-35]] was run?
A: 0.169 nM
